Measured values taken from patent US6988446B2, “Purified nitric oxide synthase” (priority 1996, dated 2006).
Where two headings read alike, the source gives them in different places. Marks after values point to notes of the source that are not given here. Non-standard residues stand in square brackets, D forms with d. No end group written: not given here. 2Thi = N[C@@H](Cc1cccs1)C(=O)O

Columns and labels:
[1] = target: T1, nNOS-II (Rattus norvegicus, UniProt P29476); test: Standard NOS enzyme assay (oxyhemoglobin to methemoglobin), peptides as substrates, initial velocity; assay type: biochemical; design: decrease of activity as substrate: concentration or dose not given beside the values; conditions: for relative activity as substrate for nNOS-II (in words): comparator (arginine or BK)
Experimental: (§1) NOS Activity Assay: NOS activity was determined spectrophotometrically by the rapid and quantitative oxidation of oxyhemoglobin to methemoglobin (Feelish et al., Eur. J. Pharmacol. 139:19-30 (1987); Olken et al., Biochem. Biophys. Res. Commun. 177:828-833 (1991)).
(§2) Thus, reaction mixtures for NOS assays containing 50 mM Tris-HCl buffer (pH 7.5), were optimized to contain 4 μM oxyhemoglobin, 100 μM NADPH, 1 mM CaCl2, 10 μM FAD, 10 μM FMN, 20 μM BH4, 150 μM DTT, 100 μM BK or L-arginine and 0.1-3 μg enzyme in a final volume of 0.5 mL.
(§3) Thus, calmodulin (10 μg/mL) was added to the reaction mixtures when L-arginine was used as substrate.
(§4) NOS activity assay. NOS activity was determined spectrophotometrically by the rapid and quantitative oxidation of oxyhemoglobin to methemoglobin (10,11). Optimized reaction mixtures for NOS assays contained 50 mM Tris-HCl buffer (pH 7.5), and were optimized to contain 4 μM oxyhemoglobin, 100 μM NADPH, 1 mM CaCl2, 10 μM FAD, 10 μM FMN, 20 μM BH. 150 μM DTT, 100 μM BK or L-arginine and 0.1-3 μg enzyme in a final volume of 0.5 ml. Calmodulin (10 μg/ml) was added to the reaction mixtures when L-arginine was used as substrate.

[2] = target: T1, nNOS-II; test: Kinetic determinations (KM, Vmax, Ki) with the standard enzyme assay; assay type: biochemical
Experimental: as §1, §2, §3
Kinetic data were calculated by fitting experimental data to the EZ-FIT program (Perrella, Anal. Biochem. 174.437-447 (1988)).
as §4
Kinetic determinations. Kinetic experiments were conducted using the standard enzyme assay described above. […] Kinetic data were calculated by fitting experimental data to EZ-FIT program (12).

[3] = target: nNOS (Rattus norvegicus, UniProt P29476); conditions: cited from earlier work
[4] = Table 3, substrate 100 μM (poly-arginine 5 μg/ml), purified nNOS-II 0.2 μg, activity for arginine = 100%, means of three measurements
[5] = substrate 100 μM (poly-arginine 5 μg/ml), purified nNOS-II 0.2 μg, activity for arginine = 100%, means of three measurements

T1 sequence (P29476 whole entry): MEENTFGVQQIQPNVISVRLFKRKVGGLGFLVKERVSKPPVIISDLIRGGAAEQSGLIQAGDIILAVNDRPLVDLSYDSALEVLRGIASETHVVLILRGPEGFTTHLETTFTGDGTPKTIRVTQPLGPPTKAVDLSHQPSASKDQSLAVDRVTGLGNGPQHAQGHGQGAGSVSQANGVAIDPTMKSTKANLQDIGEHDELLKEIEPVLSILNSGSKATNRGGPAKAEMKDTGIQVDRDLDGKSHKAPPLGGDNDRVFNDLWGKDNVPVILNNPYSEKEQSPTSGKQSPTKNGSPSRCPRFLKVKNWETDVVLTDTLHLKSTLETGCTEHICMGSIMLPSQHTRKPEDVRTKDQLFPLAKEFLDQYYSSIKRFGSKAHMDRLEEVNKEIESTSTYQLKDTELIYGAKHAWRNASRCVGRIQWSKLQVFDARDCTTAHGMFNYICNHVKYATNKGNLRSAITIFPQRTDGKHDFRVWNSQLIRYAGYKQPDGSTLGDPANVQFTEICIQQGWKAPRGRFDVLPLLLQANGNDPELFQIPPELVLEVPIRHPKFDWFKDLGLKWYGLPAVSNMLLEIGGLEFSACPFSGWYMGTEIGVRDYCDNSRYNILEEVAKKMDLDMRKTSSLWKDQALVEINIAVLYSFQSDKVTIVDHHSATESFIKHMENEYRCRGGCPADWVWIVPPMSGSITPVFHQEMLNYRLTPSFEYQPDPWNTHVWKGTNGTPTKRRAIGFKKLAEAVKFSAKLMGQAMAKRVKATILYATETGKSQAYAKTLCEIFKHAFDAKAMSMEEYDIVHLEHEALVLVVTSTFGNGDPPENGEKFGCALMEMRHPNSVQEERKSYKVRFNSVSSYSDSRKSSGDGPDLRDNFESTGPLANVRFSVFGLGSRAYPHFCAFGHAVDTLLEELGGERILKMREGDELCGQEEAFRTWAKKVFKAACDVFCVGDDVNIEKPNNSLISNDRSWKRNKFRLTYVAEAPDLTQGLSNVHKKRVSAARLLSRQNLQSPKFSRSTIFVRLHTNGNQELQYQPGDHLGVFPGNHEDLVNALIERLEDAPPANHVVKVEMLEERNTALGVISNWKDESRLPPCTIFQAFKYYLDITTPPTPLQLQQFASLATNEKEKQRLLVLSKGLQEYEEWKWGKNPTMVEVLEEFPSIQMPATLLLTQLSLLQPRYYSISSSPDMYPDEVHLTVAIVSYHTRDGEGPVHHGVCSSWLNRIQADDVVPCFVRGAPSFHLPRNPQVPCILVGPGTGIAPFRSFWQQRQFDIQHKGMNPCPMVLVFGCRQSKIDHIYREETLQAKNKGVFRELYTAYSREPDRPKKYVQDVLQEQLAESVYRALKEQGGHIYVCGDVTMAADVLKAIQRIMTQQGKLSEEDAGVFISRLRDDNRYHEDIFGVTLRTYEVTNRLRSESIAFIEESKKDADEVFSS

With `N=C(N)NCCC[C@H](N)C(=O)O` [L-arginine] the “Relative Activity (%)” value [1] was 100^c %, the “Relative activity (%)” value [1] was 100^c % and the “apparent Vmax” value ([2]; substrate of nNOS-II, calmodulin added when L-arginine is substrate) was 0.85 μmol/min/mg protein. The Km ([3]; previously described nNOS (Bredt et al.), read-out: reported KM for nNOS) was 2 µM and the “apparent Vmax for nNOS” value ([3]; previously described nNOS, L-arginine as substrate) was 0.96 μmol/min/mg protein.
For “Arg-Pro-Pro-Gly-Phe (RPPGF; rat) [BK fragment 1-5]”, the “Relative activity (%)” value [1, 4] was 61%, the “Relative Activity (%)” value [1, 5] was 61% and the “activity of that for BK” value ([1]; text of Example 2, relative to BK) was “about 50%”.
For “Arg-Pro-Pro-Gly-Phe-Ser-Pro-Phe (APPGFSPF; rat) [Des-Arg^9-BK]”, the “Relative activity (%)” value [1, 4] was 180%, the “Relative Activity (%)” value [1, 5] was 180% and the “relative activity as substrate for nNOS-II (in words)” value (from here on “relative activity as substrate”) ([1]; text of Example 2) was “about one-fold higher than that of arginine”.
In the case of ISRPPGFSPFR [Ile-Ser-BK], the “Relative activity (%)” value [1, 4] is reported as 110% and the “Relative Activity (%)” value [1, 5] is reported as 110%.
With KPPGFSPFR [[Lys^1]-BK] the “Relative activity (%)” value [1, 4] was 113% and the “Relative Activity (%)” value [1, 5] was 113%.
For “Lys-Arg-Pro-Pro-Gly-Phe-Ser-Pro-Phe-Arg [Lys-BK]”, the “Relative Activity (%)” value [1] was 116%, the “Relative activity (%)” value [1] was 116% and the “relative activity as substrate” value ([1]; text of Example 2) was “almost the same activity”.
For “Met-Lys-Arg-Pro-Pro-Gly-Phe-Ser-Pro-Phe-Arg [Met-Lys-BK]”, the “Relative Activity (%)” value [1] was 0%, the “Relative activity (%)” value [1] was 0% and the “relative activity as substrate” value ([1]; text of Example 2) was “no activity at all”.
In the case of PPGFSP [BK fragment 2-7], the “Relative activity (%)” value [1, 4] is reported as 0% and the “Relative Activity (%)” value [1, 5] is reported as 0%.
For PPGFSPFR [Des-Arg^1-BK], the “Relative activity (%)” value [1, 4] was 94%, the “Relative Activity (%)” value [1, 5] was 94% and the “relative activity as substrate” value ([1]; text of Example 2) was “activity similar to that of arginine”.
In the case of Poly-arginine, the “Relative Activity (%)” value [1] is reported as 30%, the “Relative activity (%)” value [1] is reported as 30% and the “activity for nNOS-II comparing to that of arginine” value [1] is reported as 30%.
In the case of RPPGFSP [BK fragment 1-7], the “Relative activity (%)” value [1, 4] is reported as 80%, the “Relative Activity (%)” value [1, 5] is reported as 80% and the “decrease of activity as substrate” value ([1]; text of Example 2, comparator not stated) is reported as 30%.
For RPPGFSPFR [BK], the “Relative activity (%)” value [1, 4] was 125% and the “Relative Activity (%)” value [1, 5] was 125%.
In the case of “[N-adamantaneacetyl-D-Arg^0, Hyp^3, Thi^5,8, D-Phe^7]-BK”, the Ki ([2]; nNOS-II with BK as substrate, competitive inhibition, read-out: apparent Ki) is reported as 2500 nM.
In the case of “[Thi^5,8, D-Phe^7]-BK (RPPG[2Thi]S[dF][2Thi]R)”, the “effect on nNOS-II activity” value ([2]; concentration range of 0.5-100 μM) is reported as “no effect” and the “effect on nNOS-II activity” value ([2]; concentration range of 0.5-100 mM) is reported as “no effect”.
